Laboratory results as given in patent publication US20160168225A1 (Sanofi, published 2016).
Square brackets hold non-standard residues; d marks the D form. Ends that are not written are not given here. Aib = CC(C)(N)C(=O)O

Biological target: human GLP-1 receptor (human, UniProt P43220 24-463)
Assay: cell-based or functional assay

B1: SEQ ID NO: 14 (peptide)
peptide: H[Aib]QGTFTSDLSKQLDEQRA[(S)MeLys]DFIEWLIAGGPSSGAPPPS-NH2
EC50 hGLP-1R (cAMP formation, HTRF, HEK-293 cells): 1 pM
